Experimental data from patent US20200025759A1 (PANASONIC INTELLECTURAL PROPERTY MANAGEMENT, published 2020).

B1: VHH antibody consisting of the amino acid sequence represented by SEQ ID NO: 8 (VHH)
VHH: QVQLVESGGGLVQAGGSLRLSCIASGSIFSPNVMGWYRQAPGKPRELVAAITLGESTNYADSVKGRFTISRSNAENTVYLQMDSLKPEDTAVYYCNAGPILERVGPYWGQGTQVTVSS
B2: phage-displayed VHH antibody (protein synthesized from the DNA sequence represented by SEQ ID NO: 18, i.e. SEQ ID NO: 8) (VHH)
VHH: B1 VHH

Experiments:
[1] = biological target: recombinant nucleoprotein (NP) protein derived from influenza virus H1N1 to which a Flag tag was fus (influenza virus H1N1)
[2] = biological target: intranuclear protein derived from type-A influenza virus H7N7 (A/seal/Massachusetts/1/1980) (type-A influenza virus H7N7 …, UniProt P26053 1-498); test: ELISA, virus solution immobilized on plate, anti-His-HRP detection
[3] = biological target: intranuclear protein derived from type-A influenza virus H11N6 (A/duck/England/1/1956) (type-A influenza virus H11N6 …, UniProt P26062 1-498); test: as above
[4] = biological target: intranuclear protein derived from type-A influenza virus H1N1 (A/Puerto Rico/8/34/Mount Sinai) (type-A influenza virus H1N1 (A/Puerto …, UniProt P03466 1-498)); test: as above
[5] = biological target: recombinant intranuclear protein (SEQ ID NO: 24) derived from a type-A influenza virus H1N1 (A/Puert (type-A influenza virus H1N1 (A/Puerto …, UniProt P03466 1-498))); test: phage ELISA on immobilized NP, anti-M13 detection, absorbance at 450 nm
Chain of recombinant intranuclear protein (SEQ ID NO: 24) derived from a type-A influenza virus H1N1 (A/Puert (type-A influenza virus H1N1 (P03466 whole entry): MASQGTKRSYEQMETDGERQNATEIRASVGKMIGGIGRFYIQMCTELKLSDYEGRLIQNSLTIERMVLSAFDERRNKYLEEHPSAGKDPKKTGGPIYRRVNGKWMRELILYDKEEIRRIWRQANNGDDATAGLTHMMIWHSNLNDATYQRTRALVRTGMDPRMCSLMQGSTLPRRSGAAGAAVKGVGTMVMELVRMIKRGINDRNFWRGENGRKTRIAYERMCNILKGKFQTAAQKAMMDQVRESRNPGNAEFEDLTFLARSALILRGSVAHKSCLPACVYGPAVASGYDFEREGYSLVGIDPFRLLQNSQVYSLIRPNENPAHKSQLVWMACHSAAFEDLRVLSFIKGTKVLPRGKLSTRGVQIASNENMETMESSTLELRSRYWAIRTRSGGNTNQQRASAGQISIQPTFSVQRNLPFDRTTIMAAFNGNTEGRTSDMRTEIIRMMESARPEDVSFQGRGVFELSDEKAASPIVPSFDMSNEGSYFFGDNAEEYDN

Chain of intranuclear protein derived from type-A influenza virus H11N6 (A/duck/England/1/1956) (P26062 whole entry): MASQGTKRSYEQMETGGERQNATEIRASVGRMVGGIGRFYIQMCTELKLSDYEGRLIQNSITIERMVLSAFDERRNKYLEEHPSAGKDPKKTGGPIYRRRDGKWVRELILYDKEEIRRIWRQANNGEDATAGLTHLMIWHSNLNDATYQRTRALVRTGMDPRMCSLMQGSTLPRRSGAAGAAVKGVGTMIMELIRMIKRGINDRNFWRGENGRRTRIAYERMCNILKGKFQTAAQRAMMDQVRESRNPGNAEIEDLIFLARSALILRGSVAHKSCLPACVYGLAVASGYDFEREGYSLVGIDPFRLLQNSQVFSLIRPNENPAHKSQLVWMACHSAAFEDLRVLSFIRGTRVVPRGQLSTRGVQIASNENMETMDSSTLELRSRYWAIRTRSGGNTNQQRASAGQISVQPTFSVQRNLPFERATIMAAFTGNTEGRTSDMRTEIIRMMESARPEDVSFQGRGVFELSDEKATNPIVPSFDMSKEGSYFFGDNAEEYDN
Chain of intranuclear protein derived from type-A influenza virus H1N1 (A/Puerto Rico/8/34/Mount Sinai) (type-A influenza virus H1N1 (P03466 whole entry): as the sequence (P03466 whole entry) above
Chain of recombinant nucleoprotein (NP) protein derived from influenza virus H1N1 to which a Flag tag was fus (influenza virus H1N1) (P03466 whole entry): as above
Chain of intranuclear protein derived from type-A influenza virus H7N7 (A/seal/Massachusetts/1/1980) (P26053 whole entry): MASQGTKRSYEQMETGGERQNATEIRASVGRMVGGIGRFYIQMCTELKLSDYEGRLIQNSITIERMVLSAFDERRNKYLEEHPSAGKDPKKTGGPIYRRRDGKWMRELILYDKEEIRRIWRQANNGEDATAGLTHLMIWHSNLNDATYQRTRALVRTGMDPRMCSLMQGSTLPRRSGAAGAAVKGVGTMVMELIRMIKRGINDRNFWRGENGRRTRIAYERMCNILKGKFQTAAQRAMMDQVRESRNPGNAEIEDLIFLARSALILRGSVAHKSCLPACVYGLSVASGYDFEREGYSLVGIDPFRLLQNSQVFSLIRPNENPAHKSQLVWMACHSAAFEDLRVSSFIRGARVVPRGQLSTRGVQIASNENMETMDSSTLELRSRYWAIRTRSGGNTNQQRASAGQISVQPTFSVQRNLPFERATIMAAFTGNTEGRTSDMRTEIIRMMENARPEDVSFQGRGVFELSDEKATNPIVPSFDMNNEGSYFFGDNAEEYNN

Binder	Kd [1] [nM]	binding result [2]	binding result [3]	binding result [4]	binding result [5]
B1	0.826	binds	binds	binds	–
B2	–	–	–	–	binds
